Data: the Human Domainome abundance scans (Beltran et al. 2025)
± gives the uncertainty stated by the source.

B1: POU domain, class 4, transcription factor 3, residues 185 to 256; numbered along this chain, Q15319 (parent)
chain: RELEAFAERFKQRRIKLGVTQADVGAALANLKIPGVGSLSQSTICRFESLTLSHNNMIALKPVLQAWLEEAE

Variants of: B1
Assay: abundance fitness (aPCA) (normalised: wild type 0, dead -1); higher = more abundant; growth selection in yeast, the domain comes from the species named
Settings: Homo sapiens

Variant	abundance fitness
RELEAFAERFKQRRIKLGVTQADVGAALANLKIPGVGSLSQSTICRFESLTLSHNNMIALKWVLQAWLEEAE [P62W]	-0.689 ± 0.047
RELEAFAERFKQRRIKLGVTQADVGAALANLKIPGVGSLSQSTICRFESLTLSHNNMIALKPALQAWLEEAE [V63A]	-0.135 ± 0.095
RELEAFAERFKQRRIKLGVTQADVGAALANLKIPGVGSLSQSTICRFESLTLSHNNMIALKPDLQAWLEEAE [V63D]	-0.585 ± 0.27
RELEAFAERFKQRRIKLGVTQADVGAALANLKIPGVGSLSQSTICRFESLTLSHNNMIALKPFLQAWLEEAE [V63F]	-0.181 ± 0.15
RELEAFAERFKQRRIKLGVTQADVGAALANLKIPGVGSLSQSTICRFESLTLSHNNMIALKPGLQAWLEEAE [V63G]	-0.545 ± 0.06
RELEAFAERFKQRRIKLGVTQADVGAALANLKIPGVGSLSQSTICRFESLTLSHNNMIALKPHLQAWLEEAE [V63H]	0.019 ± 0.14
RELEAFAERFKQRRIKLGVTQADVGAALANLKIPGVGSLSQSTICRFESLTLSHNNMIALKPILQAWLEEAE [V63I]	0.055 ± 0.051
RELEAFAERFKQRRIKLGVTQADVGAALANLKIPGVGSLSQSTICRFESLTLSHNNMIALKPKLQAWLEEAE [V63K]	-0.35 ± 0.34
RELEAFAERFKQRRIKLGVTQADVGAALANLKIPGVGSLSQSTICRFESLTLSHNNMIALKPMLQAWLEEAE [V63M]	-0.085 ± 0.093
RELEAFAERFKQRRIKLGVTQADVGAALANLKIPGVGSLSQSTICRFESLTLSHNNMIALKPPLQAWLEEAE [V63P]	-0.161 ± 0.087
RELEAFAERFKQRRIKLGVTQADVGAALANLKIPGVGSLSQSTICRFESLTLSHNNMIALKPQLQAWLEEAE [V63Q]	-0.34 ± 0.094
RELEAFAERFKQRRIKLGVTQADVGAALANLKIPGVGSLSQSTICRFESLTLSHNNMIALKPRLQAWLEEAE [V63R]	-0.157 ± 0.049
RELEAFAERFKQRRIKLGVTQADVGAALANLKIPGVGSLSQSTICRFESLTLSHNNMIALKPSLQAWLEEAE [V63S]	-0.162 ± 0.12
RELEAFAERFKQRRIKLGVTQADVGAALANLKIPGVGSLSQSTICRFESLTLSHNNMIALKPTLQAWLEEAE [V63T]	-0.254 ± 0.11
RELEAFAERFKQRRIKLGVTQADVGAALANLKIPGVGSLSQSTICRFESLTLSHNNMIALKPWLQAWLEEAE [V63W]	-0.022 ± 0.094
RELEAFAERFKQRRIKLGVTQADVGAALANLKIPGVGSLSQSTICRFESLTLSHNNMIALKPVCQAWLEEAE [L64C]	-0.717 ± 0.084
RELEAFAERFKQRRIKLGVTQADVGAALANLKIPGVGSLSQSTICRFESLTLSHNNMIALKPVDQAWLEEAE [L64D]	-0.737 ± 0.084
RELEAFAERFKQRRIKLGVTQADVGAALANLKIPGVGSLSQSTICRFESLTLSHNNMIALKPVEQAWLEEAE [L64E]	-0.788 ± 0.049
RELEAFAERFKQRRIKLGVTQADVGAALANLKIPGVGSLSQSTICRFESLTLSHNNMIALKPVFQAWLEEAE [L64F]	-0.412 ± 0.06
RELEAFAERFKQRRIKLGVTQADVGAALANLKIPGVGSLSQSTICRFESLTLSHNNMIALKPVGQAWLEEAE [L64G]	-0.836 ± 0.037
RELEAFAERFKQRRIKLGVTQADVGAALANLKIPGVGSLSQSTICRFESLTLSHNNMIALKPVIQAWLEEAE [L64I]	-0.402 ± 0.098
RELEAFAERFKQRRIKLGVTQADVGAALANLKIPGVGSLSQSTICRFESLTLSHNNMIALKPVKQAWLEEAE [L64K]	-0.678 ± 0.066
RELEAFAERFKQRRIKLGVTQADVGAALANLKIPGVGSLSQSTICRFESLTLSHNNMIALKPVMQAWLEEAE [L64M]	-0.17 ± 0.034
RELEAFAERFKQRRIKLGVTQADVGAALANLKIPGVGSLSQSTICRFESLTLSHNNMIALKPVNQAWLEEAE [L64N]	-0.758 ± 0.11
RELEAFAERFKQRRIKLGVTQADVGAALANLKIPGVGSLSQSTICRFESLTLSHNNMIALKPVRQAWLEEAE [L64R]	-0.818 ± 0.055

Variant	abundance fitness
RELEAFAERFKQRRIKLGVTQADVGAALANLKIPGVGSLSQSTICRFESLTLSHNNMIALKPVSQAWLEEAE [L64S]	-0.768 ± 0.076
RELEAFAERFKQRRIKLGVTQADVGAALANLKIPGVGSLSQSTICRFESLTLSHNNMIALKPVVQAWLEEAE [L64V]	-0.425 ± 0.024
RELEAFAERFKQRRIKLGVTQADVGAALANLKIPGVGSLSQSTICRFESLTLSHNNMIALKPVYQAWLEEAE [L64Y]	-0.322 ± 0.069
RELEAFAERFKQRRIKLGVTQADVGAALANLKIPGVGSLSQSTICRFESLTLSHNNMIALKPVLCAWLEEAE [Q65C]	-0.1 ± 0.21
RELEAFAERFKQRRIKLGVTQADVGAALANLKIPGVGSLSQSTICRFESLTLSHNNMIALKPVLDAWLEEAE [Q65D]	-0.065 ± 0.15
RELEAFAERFKQRRIKLGVTQADVGAALANLKIPGVGSLSQSTICRFESLTLSHNNMIALKPVLGAWLEEAE [Q65G]	0.011 ± 0.14
RELEAFAERFKQRRIKLGVTQADVGAALANLKIPGVGSLSQSTICRFESLTLSHNNMIALKPVLHAWLEEAE [Q65H]	-0.076 ± 0.2
RELEAFAERFKQRRIKLGVTQADVGAALANLKIPGVGSLSQSTICRFESLTLSHNNMIALKPVLKAWLEEAE [Q65K]	-0.011 ± 0.41
RELEAFAERFKQRRIKLGVTQADVGAALANLKIPGVGSLSQSTICRFESLTLSHNNMIALKPVLLAWLEEAE [Q65L]	-0.486 ± 0.17
RELEAFAERFKQRRIKLGVTQADVGAALANLKIPGVGSLSQSTICRFESLTLSHNNMIALKPVLRAWLEEAE [Q65R]	-0.252 ± 0.16
RELEAFAERFKQRRIKLGVTQADVGAALANLKIPGVGSLSQSTICRFESLTLSHNNMIALKPVLSAWLEEAE [Q65S]	-0.127 ± 0.3
RELEAFAERFKQRRIKLGVTQADVGAALANLKIPGVGSLSQSTICRFESLTLSHNNMIALKPVLVAWLEEAE [Q65V]	-0.085 ± 0.21
RELEAFAERFKQRRIKLGVTQADVGAALANLKIPGVGSLSQSTICRFESLTLSHNNMIALKPVLQDWLEEAE [A66D]	-0.162 ± 0.24
RELEAFAERFKQRRIKLGVTQADVGAALANLKIPGVGSLSQSTICRFESLTLSHNNMIALKPVLQEWLEEAE [A66E]	0.053 ± 0.09
RELEAFAERFKQRRIKLGVTQADVGAALANLKIPGVGSLSQSTICRFESLTLSHNNMIALKPVLQGWLEEAE [A66G]	-0.013 ± 0.092
RELEAFAERFKQRRIKLGVTQADVGAALANLKIPGVGSLSQSTICRFESLTLSHNNMIALKPVLQKWLEEAE [A66K]	0.079 ± 0.12
RELEAFAERFKQRRIKLGVTQADVGAALANLKIPGVGSLSQSTICRFESLTLSHNNMIALKPVLQLWLEEAE [A66L]	-0.048 ± 0.33
RELEAFAERFKQRRIKLGVTQADVGAALANLKIPGVGSLSQSTICRFESLTLSHNNMIALKPVLQPWLEEAE [A66P]	-0.65 ± 0.14
RELEAFAERFKQRRIKLGVTQADVGAALANLKIPGVGSLSQSTICRFESLTLSHNNMIALKPVLQQWLEEAE [A66Q]	0.042 ± 0.2
RELEAFAERFKQRRIKLGVTQADVGAALANLKIPGVGSLSQSTICRFESLTLSHNNMIALKPVLQRWLEEAE [A66R]	-0.133 ± 0.08
RELEAFAERFKQRRIKLGVTQADVGAALANLKIPGVGSLSQSTICRFESLTLSHNNMIALKPVLQTWLEEAE [A66T]	-0.074 ± 0.18
RELEAFAERFKQRRIKLGVTQADVGAALANLKIPGVGSLSQSTICRFESLTLSHNNMIALKPVLQVWLEEAE [A66V]	-0.429 ± 0.2
RELEAFAERFKQRRIKLGVTQADVGAALANLKIPGVGSLSQSTICRFESLTLSHNNMIALKPVLQACLEEAE [W67C]	-0.496 ± 0.22
RELEAFAERFKQRRIKLGVTQADVGAALANLKIPGVGSLSQSTICRFESLTLSHNNMIALKPVLQAFLEEAE [W67F]	-0.06 ± 0.065
RELEAFAERFKQRRIKLGVTQADVGAALANLKIPGVGSLSQSTICRFESLTLSHNNMIALKPVLQAHLEEAE [W67H]	-0.795 ± 0.11

Variant	abundance fitness
RELEAFAERFKQRRIKLGVTQADVGAALANLKIPGVGSLSQSTICRFESLTLSHNNMIALKPVLQAILEEAE [W67I]	-0.752 ± 0.17
RELEAFAERFKQRRIKLGVTQADVGAALANLKIPGVGSLSQSTICRFESLTLSHNNMIALKPVLQALLEEAE [W67L]	-0.549 ± 0.052
RELEAFAERFKQRRIKLGVTQADVGAALANLKIPGVGSLSQSTICRFESLTLSHNNMIALKPVLQANLEEAE [W67N]	-0.491 ± 0.16
RELEAFAERFKQRRIKLGVTQADVGAALANLKIPGVGSLSQSTICRFESLTLSHNNMIALKPVLQAPLEEAE [W67P]	-0.618 ± 0.1
RELEAFAERFKQRRIKLGVTQADVGAALANLKIPGVGSLSQSTICRFESLTLSHNNMIALKPVLQAQLEEAE [W67Q]	-1.02 ± 0.24
RELEAFAERFKQRRIKLGVTQADVGAALANLKIPGVGSLSQSTICRFESLTLSHNNMIALKPVLQASLEEAE [W67S]	-0.684 ± 0.14
RELEAFAERFKQRRIKLGVTQADVGAALANLKIPGVGSLSQSTICRFESLTLSHNNMIALKPVLQATLEEAE [W67T]	-0.697 ± 0.11
RELEAFAERFKQRRIKLGVTQADVGAALANLKIPGVGSLSQSTICRFESLTLSHNNMIALKPVLQAYLEEAE [W67Y]	-0.09 ± 0.087
RELEAFAERFKQRRIKLGVTQADVGAALANLKIPGVGSLSQSTICRFESLTLSHNNMIALKPVLQAWAEEAE [L68A]	-0.287 ± 0.032
RELEAFAERFKQRRIKLGVTQADVGAALANLKIPGVGSLSQSTICRFESLTLSHNNMIALKPVLQAWCEEAE [L68C]	-0.257 ± 0.072
RELEAFAERFKQRRIKLGVTQADVGAALANLKIPGVGSLSQSTICRFESLTLSHNNMIALKPVLQAWDEEAE [L68D]	-0.872 ± 0.078
RELEAFAERFKQRRIKLGVTQADVGAALANLKIPGVGSLSQSTICRFESLTLSHNNMIALKPVLQAWEEEAE [L68E]	-0.503 ± 0.042
RELEAFAERFKQRRIKLGVTQADVGAALANLKIPGVGSLSQSTICRFESLTLSHNNMIALKPVLQAWFEEAE [L68F]	-0.585 ± 0.067
RELEAFAERFKQRRIKLGVTQADVGAALANLKIPGVGSLSQSTICRFESLTLSHNNMIALKPVLQAWGEEAE [L68G]	-0.685 ± 0.042
RELEAFAERFKQRRIKLGVTQADVGAALANLKIPGVGSLSQSTICRFESLTLSHNNMIALKPVLQAWIEEAE [L68I]	-0.056 ± 0.069
RELEAFAERFKQRRIKLGVTQADVGAALANLKIPGVGSLSQSTICRFESLTLSHNNMIALKPVLQAWKEEAE [L68K]	-0.901 ± 0.054
RELEAFAERFKQRRIKLGVTQADVGAALANLKIPGVGSLSQSTICRFESLTLSHNNMIALKPVLQAWMEEAE [L68M]	-0.056 ± 0.031
RELEAFAERFKQRRIKLGVTQADVGAALANLKIPGVGSLSQSTICRFESLTLSHNNMIALKPVLQAWNEEAE [L68N]	-0.912 ± 0.12
RELEAFAERFKQRRIKLGVTQADVGAALANLKIPGVGSLSQSTICRFESLTLSHNNMIALKPVLQAWPEEAE [L68P]	-1.06 ± 0.14
RELEAFAERFKQRRIKLGVTQADVGAALANLKIPGVGSLSQSTICRFESLTLSHNNMIALKPVLQAWQEEAE [L68Q]	-0.497 ± 0.047
RELEAFAERFKQRRIKLGVTQADVGAALANLKIPGVGSLSQSTICRFESLTLSHNNMIALKPVLQAWREEAE [L68R]	-0.96 ± 0.068
RELEAFAERFKQRRIKLGVTQADVGAALANLKIPGVGSLSQSTICRFESLTLSHNNMIALKPVLQAWTEEAE [L68T]	-0.46 ± 0.038
RELEAFAERFKQRRIKLGVTQADVGAALANLKIPGVGSLSQSTICRFESLTLSHNNMIALKPVLQAWVEEAE [L68V]	-0.13 ± 0.026
RELEAFAERFKQRRIKLGVTQADVGAALANLKIPGVGSLSQSTICRFESLTLSHNNMIALKPVLQAWWEEAE [L68W]	-0.574 ± 0.041
RELEAFAERFKQRRIKLGVTQADVGAALANLKIPGVGSLSQSTICRFESLTLSHNNMIALKPVLQAWYEEAE [L68Y]	-0.287 ± 0.052
